The results in this text go back to US20240350682A1 (FUSION PHARMACEUTICALS, published 2024).

Experiment [1] addresses T1, six-transmembrane epithelial antigen of prostate-2 (STEAP2) (human, UniProt Q8NFT2 1-490).
T1 construct: Endogenous STEAP2 on prostate cancer cell lines (LNCaP, C4-2, 22RV1); also called STEAP2 receptor
T1 sequence: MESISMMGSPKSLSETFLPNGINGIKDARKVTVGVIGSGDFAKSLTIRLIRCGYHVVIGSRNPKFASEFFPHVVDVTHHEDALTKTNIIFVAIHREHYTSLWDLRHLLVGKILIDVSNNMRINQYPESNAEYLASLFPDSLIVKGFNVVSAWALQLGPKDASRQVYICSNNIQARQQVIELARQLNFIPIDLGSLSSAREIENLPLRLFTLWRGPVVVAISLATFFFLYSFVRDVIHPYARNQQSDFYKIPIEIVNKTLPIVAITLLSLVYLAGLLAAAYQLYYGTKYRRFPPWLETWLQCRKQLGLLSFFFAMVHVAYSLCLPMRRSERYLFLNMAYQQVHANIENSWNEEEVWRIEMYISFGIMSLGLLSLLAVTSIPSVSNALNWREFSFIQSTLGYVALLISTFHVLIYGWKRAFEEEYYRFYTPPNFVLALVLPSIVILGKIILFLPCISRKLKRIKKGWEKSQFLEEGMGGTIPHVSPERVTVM
Briefly: cell binding on LNCaP cells.

Experiment [2] deals with T1, six-transmembrane epithelial antigen of …. In words: cell-based binding on LNCaP cells.
Experiment [3] has the same target. In words: radioligand saturation binding on 22RV1 cells, single-site fit of specific binding. How it is done:
(§1) The purpose of this assay was to ensure that the radioimmunoconjugates maintained the binding characteristics of the native antibody in STEAP2 expressing cell lines including C4-2, 22RV1 and LNCaP. One day prior to the experiment, cells (1.5-2×10⁵) were seeded in 48-well microplates in 500 μL supplemented medium. At the start of the assay, cells were washed with PBS once and then treated with either Binding Buffer or 5 μM cold antibody [total binding (TB) and non-specific binding (NSB) respectively]. Plates were incubated at 4° C. for about one hour with mild shaking. Following incubation, both […] and NSB cells were treated with increasing concentrations of [¹⁷⁷Lu]-STEAP2 (40A3-LO11) or [¹⁷⁷Lu]-STEAP2 (40A3-LO14) (0.098 nM to 50 nM) and were incubated at 4° C. for about two hours with mild shaking.
(§2) Following incubation, the cells were washed twice with PBS and were then lysed with 1% Triton-X-100. The lysates were transferred to gamma counting tubes and run along with the standard of [¹⁷⁷Lu]-STEAP2 (40A3-LO11) or [¹⁷⁷Lu]-STEAP2 (40A3-LO14) on the Wizard 1470 gamma counter to determine the amount of radioactivity in counts per minute (CPM) for each lysate. The remaining lysate from each well (25 μL) was used for analyzing the protein content using a standard protein quantification assay.

Experiment [4] has the same target. In words: radioligand saturation binding on C4-2 cells, single-site fit of specific binding. How it is done: as §1, §2
Experiment [5] has the same target. In words: saturation radioligand binding on 22RV1 cells (4 °C); specific = total minus nonspecific binding in the presence of excess unlabeled antibody; single-site fit. How it is done:
as §1, §2

Experiment [6] has the same target. In words: saturation radioligand binding on C4-2 cells (4 °C); specific = total minus nonspecific binding in the presence of excess unlabeled antibody; single-site fit. How it is done:
as §1, §2

Experiment [7] shares this target. Briefly: radioligand saturation binding on LNCaP cells, single-site fit of specific binding. How it is done:
as §1, §2

Experiment [8] has the same target. Briefly: saturation radioligand binding on LNCaP cells (4 °C); specific = total minus nonspecific binding in the presence of excess unlabeled antibody; single-site fit. How it is done:
as §1, §2

Substitutions are numbered along the chain they refer to.

As usually defined, the EC50 is the concentration at which the effect is half-maximal. The term Kd denotes the equilibrium constant for the complex coming apart.

B1: 40A3-LO14 (IgG1-TM) (antibody, V domains shown)
VH: QVQLQQSGPGLVKPSQTLSLTCAISGDSVSRNSAVWNWIRQSPSRGLEWLGRTYYRSKWYNDYAPSVKSRITINPDTSKNQFSLQLNSVTPEDTAVYYCARGLRQNQFYYYMDVWGKGTTVTVSS
VL: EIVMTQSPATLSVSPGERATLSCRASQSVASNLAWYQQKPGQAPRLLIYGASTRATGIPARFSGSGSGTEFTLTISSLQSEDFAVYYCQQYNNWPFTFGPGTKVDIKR
notes: Human IgG1 kappa with reduced effector function (IgG1-TM); also called 40A3GL-LO14; 40A3-LO14 hIgG-TM
As to B1, it took 1.67 nM to reach a half-maximal effect in experiment [1] (EC50). Also, the “fold improvement in binding relative to 40A3-LO7” value in experiment [2] was determined as 26 fold.

B2: [177Lu]-STEAP2 (40A3-LO14) (antibody, human IgG1, kappa, V domains shown)
VH: B1 VH
VL: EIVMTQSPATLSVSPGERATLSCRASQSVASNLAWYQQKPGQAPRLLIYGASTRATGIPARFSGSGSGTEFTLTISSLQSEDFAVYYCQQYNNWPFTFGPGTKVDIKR
modifications: 177Lu complex of the DOTA chelate of Compound C (PEG3 linker) conjugated to the antibody through its tetrafluorophenyl ester; sites and chain not stated; typical chelate to antibody ratios 5-5.5
notes: also called [177Lu]-Compound C-anti-STEAP2 conjugate; [177Lu]-DOTA-anti-STEAP2 conjugate
Consider B2, for which the Kd in experiment [3] is approximately 3.2 nM; in experiment [4] it was approximately 2.8 nM; in experiment [5] it was 3.26 nM; in experiment [6] it was 2.82 nM; in experiment [7], approximately 0.79 nM.

B3: 40A3-LO11 (IgG1-TM) (antibody, V domains shown)
VH: B1 VH with R104L
VL: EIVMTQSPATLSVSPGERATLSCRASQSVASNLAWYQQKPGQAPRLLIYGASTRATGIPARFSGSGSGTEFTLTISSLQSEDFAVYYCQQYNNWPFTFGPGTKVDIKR
For the molecule B3, in experiment [1], the midpoint of the response, the EC50, lay at 2.38 nM.

B4: [177Lu]-STEAP2 (40A3-LO11) (antibody, human IgG1, kappa, V domains shown)
VH: B1 VH with R104L
VL: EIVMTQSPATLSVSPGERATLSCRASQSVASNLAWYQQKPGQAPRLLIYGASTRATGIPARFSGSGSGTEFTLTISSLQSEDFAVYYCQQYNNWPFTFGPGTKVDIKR
modifications: 177Lu complex of the DOTA chelate of Compound C (PEG3 linker) conjugated to the antibody; sites, chain and ratio not stated for this antibody
notes: Radioimmunoconjugate of 40A3-LO11; also called [177Lu]-Compound C-anti-STEAP2 conjugate
Turning to B4, the Kd in experiment [3] is approximately 6.7 nM; in experiment [4] it was approximately 6.9 nM; in experiment [5], 6.77 nM; in experiment [6], 6.58 nM; in experiment [7], approximately 1.2 nM; in experiment [8], 1.24 nM.
